# Where two headings read alike, the source gives them in different places.
# T1: human IL-23 protein (Sino Biological, CT048-H08H) (human, UniProt Q9NPF7 20-189; P29460 23-328)
# T1 sequence (looked up) 1: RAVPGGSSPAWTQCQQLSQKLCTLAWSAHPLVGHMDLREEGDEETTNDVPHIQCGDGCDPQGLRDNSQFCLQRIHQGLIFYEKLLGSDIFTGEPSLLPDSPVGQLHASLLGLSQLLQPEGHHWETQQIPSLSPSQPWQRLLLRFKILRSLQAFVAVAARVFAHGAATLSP
# T1 sequence (looked up) 2: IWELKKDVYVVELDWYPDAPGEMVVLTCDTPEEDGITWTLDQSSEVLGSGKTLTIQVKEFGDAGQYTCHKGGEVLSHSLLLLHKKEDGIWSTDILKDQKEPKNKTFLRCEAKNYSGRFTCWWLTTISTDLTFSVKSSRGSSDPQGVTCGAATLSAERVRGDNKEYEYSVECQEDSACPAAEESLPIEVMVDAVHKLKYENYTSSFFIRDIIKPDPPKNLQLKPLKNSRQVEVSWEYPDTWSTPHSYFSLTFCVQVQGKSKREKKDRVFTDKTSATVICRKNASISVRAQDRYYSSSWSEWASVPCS
# T2: human IL-23 protein (ACROBiosystems, ILB-H52W5) (human, UniProt Q9NPF7 20-189; P29460 23-328)
# T2 sequence (looked up) 1: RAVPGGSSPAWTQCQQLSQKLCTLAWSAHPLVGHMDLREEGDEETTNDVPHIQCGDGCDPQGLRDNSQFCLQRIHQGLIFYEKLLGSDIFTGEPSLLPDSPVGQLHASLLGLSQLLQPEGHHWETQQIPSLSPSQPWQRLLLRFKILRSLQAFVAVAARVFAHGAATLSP
# T2 sequence (looked up) 2: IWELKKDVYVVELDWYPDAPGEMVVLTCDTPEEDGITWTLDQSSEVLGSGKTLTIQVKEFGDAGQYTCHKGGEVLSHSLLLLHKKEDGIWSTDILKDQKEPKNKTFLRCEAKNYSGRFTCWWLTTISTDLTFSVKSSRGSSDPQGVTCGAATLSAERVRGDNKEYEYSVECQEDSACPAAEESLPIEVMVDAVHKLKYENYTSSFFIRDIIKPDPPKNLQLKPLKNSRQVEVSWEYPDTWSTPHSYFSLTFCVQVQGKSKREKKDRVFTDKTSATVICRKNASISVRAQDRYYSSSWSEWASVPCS
# T3: IL-23 (R&D Systems, 1290-IL-010) (UniProt Q9NPF7 20-189; P29460 23-328)
# T3 sequence (looked up) 1: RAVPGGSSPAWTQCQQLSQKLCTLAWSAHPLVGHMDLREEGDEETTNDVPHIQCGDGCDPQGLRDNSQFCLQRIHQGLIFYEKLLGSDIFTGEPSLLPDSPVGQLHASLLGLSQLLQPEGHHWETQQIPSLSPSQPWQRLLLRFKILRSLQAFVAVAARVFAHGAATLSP
# T3 sequence (looked up) 2: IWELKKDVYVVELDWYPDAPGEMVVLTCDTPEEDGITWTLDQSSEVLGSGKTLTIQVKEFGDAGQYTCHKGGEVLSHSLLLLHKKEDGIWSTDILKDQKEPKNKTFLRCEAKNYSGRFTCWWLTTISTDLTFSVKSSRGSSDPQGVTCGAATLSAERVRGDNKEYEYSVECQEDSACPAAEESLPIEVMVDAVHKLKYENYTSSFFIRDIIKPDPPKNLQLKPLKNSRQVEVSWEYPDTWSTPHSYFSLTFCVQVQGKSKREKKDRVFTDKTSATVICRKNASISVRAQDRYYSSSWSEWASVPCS
# How the values were obtained:
# [1] = biological target: T1, human IL-23 protein (Sino Biological, …); test: cell-based or functional assay
# [2] = biological target: T1, human IL-23 protein (Sino Biological, …); test: competition ELISA, IL-23R coated, biotinylated IL-23 preincubated with antibody
# [3] = biological target: T1, human IL-23 protein (Sino Biological, …); test: SPR (Biacore 8K), antibody captured on Protein A chip, IL-23 as analyte
# [4] = biological target: T1, human IL-23 protein (Sino Biological, …); test: ELISA, test sample coated, His-tagged IL-23 in solution
# [5] = biological target: T2, human IL-23 protein (ACROBiosystems, …); test: cell-based or functional assay
# [6] = biological target: T2, human IL-23 protein (ACROBiosystems, …); test: ELISA, human IL-23 coated
# [7] = biological target: T2, human IL-23 protein (ACROBiosystems, …); test: SPR (Biacore 8K), antibody captured by anti-human IgG Fc, IL-23 as analyte
# [8] = biological target: T2, human IL-23 protein (ACROBiosystems, …); test: cell-based or functional assay; remark: listed apart in the source
# [9] = biological target: T3, IL-23 (R&D Systems, 1290-IL-010); test: cell-based or functional assay
# [10] = biological target: T1, human IL-23 protein (Sino Biological, …); test: SPR (Biacore 8K), antibody captured on Protein A chip, IL-23 as analyte; remark: listed apart in the source
# [11] = biological target: T2, human IL-23 protein (ACROBiosystems, …); test: cell-based or functional assay; remark: listed apart in the source
"Activity in inhibiting proliferation of BaF3-IL-23R cells (IC50, nM) [1]",IC50 [2],Kd [3],koff [3],kon [3],EC50 [4],"proliferation of BaF3-mIL-23R cells induced by IL-23, IC50 [5]",EC50 [6],Kd [7],koff [7],kon [7],DB-STAT3-Luc2 reporter gene system IC50 [8],IC50 for inhibiting IL-17 secretion [9],Kd [10],koff [10],kon [10],"proliferation of BaF3-mIL-23R cells induced by IL-23, IC50 [11]",Binder
0.175 nM,0.386 nM,0.0207 nM,8.4e-05 s⁻¹,4.05e+06 M⁻¹ s⁻¹,1.16 nM,–,–,–,–,–,–,–,–,–,–,–,"chimeric antibody Ch29 (antibody, human IgG1, kappa, L234A L235A, V domains shown) VH: QVQLKESGPGLVAPSQSLSITCTVSGFSLTSYAISWVRQPPGKGLEWLGVIWTGGGTNYNSGIKSRLTISKDNSKSQVFLNMNSLQTEDTARYYCVREGDYGSYAGAMDYWGQGTSVTVSS VL: DIVLTQSPASLAVSLGQRATISCRASESVDYYGISSMHWFQQKPGQPPKLLIYRASNLESGIPARFSGSGSRTDFTLTINRVETDDVATYYCQQANKDPYTFGGGTKLEIKR"
0.194 nM,0.478 nM,–,–,–,1.11 nM,0.36 nM,0.55 nM,0.0106 nM,6.26e-05 s⁻¹,5.93e+06 M⁻¹ s⁻¹,5.1 nM,0.0177 nM,0.0151 nM,4.08e-05 s⁻¹,2.71e+06 M⁻¹ s⁻¹,0.43 nM,"Hu29-19 (humanized anti-IL-23 antibody, hAb29VH5 and hAb29VL3) (antibody, human IgG1, kappa, L234A L235A, V domains shown) VH: QVTLKESGPVLVKPTETLTLTCTVSGFSLTNYAISWVRQPPGKGLEWLGVIWTGGGTNYNSGIKSRLTISKDNSKSQVVLTMTNMDPVDTARYYCVREGDYGSYAGAMDYWGQGTTVTVSS VL: DIVLTQSPDSLAVSLGERATINCRASESVDYYGISSMHWFQQKPGQPPKLLIYRASNLESGIPARFSGSGSRTDFTLTISSLQAEDVAVYYCQQANKDPYTFGGGTKVEIKR"
0.178 nM,0.488 nM,–,–,–,1.22 nM,–,–,–,–,–,–,0.0289 nM,0.0149 nM,–,–,–,"Hu29-24 (humanized anti-IL-23 antibody) (antibody, human IgG1, kappa, L234A L235A) heavy: not shown light: DIVLTQSPDSLAVSLGQRATINCRASESVDYYGISSMHWFQQKPGQPPKLLIYRASNLESGIPARFSGSGSRTDFTLTISSLQAEDVAVYYCQQANKDPYTFGGGTKVEIKRTVAAPSVFIFPPSDEQLKSGTASVVCLLNNFYPREAKVQWKVDNALQSGNSQESVTEQDSKDSTYSLSSTLTLSKADYEKHKVYACEVTHQGLSSPVTKSFNRGEC"

# Reference: patent EP4671282A1 (Jiangsu Hengrui Pharmaceuticals Co., Ltd., dated 2025)
